pKd: −log10 of the molar value.
Assays:
[1] = target: T1, β-bungarotoxin (β-BuTx) (Bungarus multicinctus) (UniProt P00618+P00987); assay: fluorescence anisotropy; conditions: 20 mM HEPES pH 7.4, 150 mM NaCl, 5 mM KCl, 2 mM MgCl2, 2 mM CaCl2, room temperature
[2] = target: T1, β-bungarotoxin (β-BuTx) (Bungarus multicinctus); assay: filter binding; conditions: 20 mM HEPES pH 7.4, 150 mM NaCl, 5 mM KCl, 2 mM MgCl2, 2 mM CaCl2, room temperature

T1 sequence (P00618 26-145, chain 1 of 2): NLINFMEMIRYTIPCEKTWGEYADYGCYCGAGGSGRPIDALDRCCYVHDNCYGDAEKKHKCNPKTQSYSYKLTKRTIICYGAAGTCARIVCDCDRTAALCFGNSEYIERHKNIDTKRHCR
T1 sequence (P00987 25-85, chain 2 of 2): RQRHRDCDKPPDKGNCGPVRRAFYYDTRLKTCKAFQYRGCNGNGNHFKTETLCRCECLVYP

| Sequence | pKd [1] | binding signal [2] [% bound] |
| --- | --- | --- |
| AGCAGCACAGAGGTCAGATGGCAATGCACCTTTGTCTCTTATAGTTTATTTTTTGCCTTCCTATGCGTGCTACCGTGAA [βB-32] | 6.00 |  |
| AGCAGCACAGAGGTCAGATGGTTTTCCCCTTGTCGCTTTTGGTTCGTTCTGCCTCTATCTCCTATGCGTGCTACCGTGAA [βB-1] | 7.18 | 45 |
| AGCAGCACAGAGGTCAGATGTTTGGTGTGGATCCTGAACATTTATATTCTTTCGTTTTTTCCTATGCGTGCTACCGTGAA [βB-19] | 6.28 |  |
| AGCAGCACAGAGGTCAGATGATTAGTCATGTTTGTTTGTCTGGCTTTTTGGGTTTGTGCAGTATTATGAACCCTATGCGTGCTACCGTGAA [βB-20] | 7.08 |  |

Source: publication PMC4140777
